The results in this text go back to the Human Domainome abundance scans (Beltran et al. 2025).

Sequences and labels used below:
B1: Zinc finger MYM-type protein 6, residues 427 to 504; numbered along this chain, O95789 (parent)
chain: KLKCQHCNHLFATKPELLFYKGKMFLFCGKNCSDEYKKKNKVVAMCDYCKLQKIIKETVRFSGVDKPFCSEVCKFLSA

± gives the uncertainty stated by the source.

The variants in the series derive from B1. The series is described as follows: abundance fitness (aPCA) (normalised: wild type 0, dead -1); higher = more abundant; growth selection in yeast, the domain comes from the species named. Conditions: Homo sapiens.
Regarding KLKCQHCNHLFATKPELLFYKGKMFLHCGKNCSDEYKKKNKVVAMCDYCKLQKIIKETVRFSGVDKPFCSEVCKFLSA, the abundance fitness is -0.405 ± 0.069. As for KLKCQHCNHLFATKPELLFYKGKMFLICGKNCSDEYKKKNKVVAMCDYCKLQKIIKETVRFSGVDKPFCSEVCKFLSA, the abundance fitness was -0.365 ± 0.15.

As for KLKCQHCNHLFATKPELLFYKGKMFLQCGKNCSDEYKKKNKVVAMCDYCKLQKIIKETVRFSGVDKPFCSEVCKFLSA, the abundance fitness is -0.527 ± 0.054. As for KLKCQHCNHLFATKPELLFYKGKMFLGCGKNCSDEYKKKNKVVAMCDYCKLQKIIKETVRFSGVDKPFCSEVCKFLSA, the abundance fitness was -0.545 ± 0.037. With KLKCQHCNHLFATKPELLFYKGKMFLVCGKNCSDEYKKKNKVVAMCDYCKLQKIIKETVRFSGVDKPFCSEVCKFLSA, the abundance fitness was -0.161 ± 0.036. In the case of KLKCQHCNHLFATKPELLFYKGKMFLWCGKNCSDEYKKKNKVVAMCDYCKLQKIIKETVRFSGVDKPFCSEVCKFLSA it was -0.372 ± 0.049; in that of KLKCQHCNHLFATKPELLFYKGKMFLKCGKNCSDEYKKKNKVVAMCDYCKLQKIIKETVRFSGVDKPFCSEVCKFLSA, -0.727 ± 0.17; in that of KLKCQHCNHLFATKPELLFYKGKMFLSCGKNCSDEYKKKNKVVAMCDYCKLQKIIKETVRFSGVDKPFCSEVCKFLSA, -0.459 ± 0.039. Regarding KLKCQHCNHLFATKPELLFYKGKMFLCCGKNCSDEYKKKNKVVAMCDYCKLQKIIKETVRFSGVDKPFCSEVCKFLSA, the abundance fitness was -0.025 ± 0.068. For KLKCQHCNHLFATKPELLFYKGKMFLDCGKNCSDEYKKKNKVVAMCDYCKLQKIIKETVRFSGVDKPFCSEVCKFLSA, the abundance fitness is -0.553 ± 0.062. KLKCQHCNHLFATKPELLFYKGKMFLLCGKNCSDEYKKKNKVVAMCDYCKLQKIIKETVRFSGVDKPFCSEVCKFLSA: the abundance fitness was -0.073 ± 0.037. With KLKCQHCNHLFATKPELLFYKGKMFLTCGKNCSDEYKKKNKVVAMCDYCKLQKIIKETVRFSGVDKPFCSEVCKFLSA, the abundance fitness is -0.161 ± 0.04. The figure for KLKCQHCNHLFATKPELLFYKGKMFLMCGKNCSDEYKKKNKVVAMCDYCKLQKIIKETVRFSGVDKPFCSEVCKFLSA is -0.066 ± 0.043. Turning to KLKCQHCNHLFATKPELLFYKGKMFLECGKNCSDEYKKKNKVVAMCDYCKLQKIIKETVRFSGVDKPFCSEVCKFLSA, the abundance fitness was -0.508 ± 0.051. Regarding KLKCQHCNHLFATKPELLFYKGKMFLNCGKNCSDEYKKKNKVVAMCDYCKLQKIIKETVRFSGVDKPFCSEVCKFLSA, the abundance fitness is -0.512 ± 0.19. In the case of KLKCQHCNHLFATKPELLFYKGKMFLRCGKNCSDEYKKKNKVVAMCDYCKLQKIIKETVRFSGVDKPFCSEVCKFLSA it was -0.805 ± 0.04. For the variant KLKCQHCNHLFATKPELLFYKGKMFLFCDKNCSDEYKKKNKVVAMCDYCKLQKIIKETVRFSGVDKPFCSEVCKFLSA, the abundance fitness was -0.386 ± 0.13. With KLKCQHCNHLFATKPELLFYKGKMFLFCLKNCSDEYKKKNKVVAMCDYCKLQKIIKETVRFSGVDKPFCSEVCKFLSA, the abundance fitness is -0.345 ± 0.04. With KLKCQHCNHLFATKPELLFYKGKMFLFCMKNCSDEYKKKNKVVAMCDYCKLQKIIKETVRFSGVDKPFCSEVCKFLSA, the abundance fitness was -0.084 ± 0.089. Regarding KLKCQHCNHLFATKPELLFYKGKMFLFCCKNCSDEYKKKNKVVAMCDYCKLQKIIKETVRFSGVDKPFCSEVCKFLSA, the abundance fitness is -0.096 ± 0.052. With KLKCQHCNHLFATKPELLFYKGKMFLFCEKNCSDEYKKKNKVVAMCDYCKLQKIIKETVRFSGVDKPFCSEVCKFLSA, the abundance fitness was -0.131 ± 0.069. On to KLKCQHCNHLFATKPELLFYKGKMFLFCVKNCSDEYKKKNKVVAMCDYCKLQKIIKETVRFSGVDKPFCSEVCKFLSA, for which the abundance fitness is -0.204 ± 0.034. As for KLKCQHCNHLFATKPELLFYKGKMFLFCHKNCSDEYKKKNKVVAMCDYCKLQKIIKETVRFSGVDKPFCSEVCKFLSA, the abundance fitness was -0.333 ± 0.21. In the case of KLKCQHCNHLFATKPELLFYKGKMFLFCSKNCSDEYKKKNKVVAMCDYCKLQKIIKETVRFSGVDKPFCSEVCKFLSA it was -0.123 ± 0.038; in that of KLKCQHCNHLFATKPELLFYKGKMFLFCAKNCSDEYKKKNKVVAMCDYCKLQKIIKETVRFSGVDKPFCSEVCKFLSA, -0.033 ± 0.029; in that of KLKCQHCNHLFATKPELLFYKGKMFLFCPKNCSDEYKKKNKVVAMCDYCKLQKIIKETVRFSGVDKPFCSEVCKFLSA, -0.683 ± 0.069. With KLKCQHCNHLFATKPELLFYKGKMFLFCWKNCSDEYKKKNKVVAMCDYCKLQKIIKETVRFSGVDKPFCSEVCKFLSA, the abundance fitness is -0.602 ± 0.041.

Turning to KLKCQHCNHLFATKPELLFYKGKMFLFCQKNCSDEYKKKNKVVAMCDYCKLQKIIKETVRFSGVDKPFCSEVCKFLSA, the abundance fitness is -0.09 ± 0.056.

For KLKCQHCNHLFATKPELLFYKGKMFLFCTKNCSDEYKKKNKVVAMCDYCKLQKIIKETVRFSGVDKPFCSEVCKFLSA, the abundance fitness was -0.145 ± 0.045.

For the variant KLKCQHCNHLFATKPELLFYKGKMFLFCRKNCSDEYKKKNKVVAMCDYCKLQKIIKETVRFSGVDKPFCSEVCKFLSA, the abundance fitness was -0.104 ± 0.029.

On to KLKCQHCNHLFATKPELLFYKGKMFLFCKKNCSDEYKKKNKVVAMCDYCKLQKIIKETVRFSGVDKPFCSEVCKFLSA, for which the abundance fitness is -0.004 ± 0.07. The figure for KLKCQHCNHLFATKPELLFYKGKMFWFCGKNCSDEYKKKNKVVAMCDYCKLQKIIKETVRFSGVDKPFCSEVCKFLSA is -0.053 ± 0.032.

Turning to KLKCQHCNHLFATKPELLFYKGKMFTFCGKNCSDEYKKKNKVVAMCDYCKLQKIIKETVRFSGVDKPFCSEVCKFLSA, the abundance fitness worked out at 0.035 ± 0.048. In the case of KLKCQHCNHLFATKPELLFYKGKMFPFCGKNCSDEYKKKNKVVAMCDYCKLQKIIKETVRFSGVDKPFCSEVCKFLSA it was -0.03 ± 0.04; in that of KLKCQHCNHLFATKPELLFYKGKMFVFCGKNCSDEYKKKNKVVAMCDYCKLQKIIKETVRFSGVDKPFCSEVCKFLSA, 0.037 ± 0.031.
